Earlier results as cited in PMC7194015, “Proline-Rich Antimicrobial Peptides in Medicinal Maggots of Lucilia sericata Interact With Bacterial DnaK But Do Not Inhibit Protein Synthesis” (Frontiers in Pharmacology, 2020).

Target: DnaK (Escherichia coli) (UniProt P0A6Y8)
Sequence (P0A6Y8 2-638): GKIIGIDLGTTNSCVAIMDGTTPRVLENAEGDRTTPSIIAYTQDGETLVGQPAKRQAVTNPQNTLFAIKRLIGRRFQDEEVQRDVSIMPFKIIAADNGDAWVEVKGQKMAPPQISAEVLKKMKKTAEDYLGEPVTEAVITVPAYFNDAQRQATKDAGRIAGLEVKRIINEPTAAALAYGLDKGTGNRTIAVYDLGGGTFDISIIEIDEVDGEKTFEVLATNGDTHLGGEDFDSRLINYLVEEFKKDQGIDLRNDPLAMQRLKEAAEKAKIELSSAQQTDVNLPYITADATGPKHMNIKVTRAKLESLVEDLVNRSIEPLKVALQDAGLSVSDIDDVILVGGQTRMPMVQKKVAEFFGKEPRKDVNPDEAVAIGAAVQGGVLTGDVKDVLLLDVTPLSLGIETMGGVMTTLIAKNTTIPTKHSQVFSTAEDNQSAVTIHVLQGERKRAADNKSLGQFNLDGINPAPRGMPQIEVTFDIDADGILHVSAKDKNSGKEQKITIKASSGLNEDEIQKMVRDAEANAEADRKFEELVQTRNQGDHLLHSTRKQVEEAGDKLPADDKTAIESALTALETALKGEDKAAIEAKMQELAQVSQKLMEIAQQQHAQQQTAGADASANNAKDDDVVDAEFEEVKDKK

Sequence of abaecin (P81463 whole entry): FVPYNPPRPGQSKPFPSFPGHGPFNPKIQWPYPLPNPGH

abaecin (from UniProt P81463)
Kd: 100 nM
